Reference: patent publication US20250152704A1 (PARAGON THERAPEUTICS, published 2025)

Tests used:
[1] = target: FcRn-GFP; test: cell-based or functional assay
[2] = target: T1, Recombinant in-house Human FcRn protein (human, UniProt P55899 24-297; P61769 21-119, limits assumed); test: SPR, pH 6
T1 construct: also called huFCRN; HuFcRn

[3] = target: T2, cynomolgus monkey FcRn (cynomolgus monkey, UniProt Q8SPV9 24-297; Q8SPW0 21-119, limits assumed); test: SPR, pH 6
T2 construct: also called cynoFcRn

[4] = target: T3, mouse FcRn (mouse, UniProt Q61559 22-297; P01887 21-119, limits assumed); test: SPR, pH 6
T3 sequence (looked up) 1: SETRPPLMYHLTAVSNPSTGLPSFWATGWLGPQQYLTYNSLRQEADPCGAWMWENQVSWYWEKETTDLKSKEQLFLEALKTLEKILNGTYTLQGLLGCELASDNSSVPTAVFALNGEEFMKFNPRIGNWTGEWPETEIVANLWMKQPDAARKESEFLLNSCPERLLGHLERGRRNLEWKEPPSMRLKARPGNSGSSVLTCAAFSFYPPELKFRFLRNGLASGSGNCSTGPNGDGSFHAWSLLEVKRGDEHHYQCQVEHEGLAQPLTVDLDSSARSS
T3 sequence (looked up) 2: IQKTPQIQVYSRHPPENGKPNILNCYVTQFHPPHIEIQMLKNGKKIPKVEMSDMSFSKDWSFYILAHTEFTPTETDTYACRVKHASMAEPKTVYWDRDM

[5] = target: T4, rat FcRn (rat, UniProt P13599 23-298; P07151 21-119, limits assumed); test: SPR, pH 6
T4 sequence (looked up) 1: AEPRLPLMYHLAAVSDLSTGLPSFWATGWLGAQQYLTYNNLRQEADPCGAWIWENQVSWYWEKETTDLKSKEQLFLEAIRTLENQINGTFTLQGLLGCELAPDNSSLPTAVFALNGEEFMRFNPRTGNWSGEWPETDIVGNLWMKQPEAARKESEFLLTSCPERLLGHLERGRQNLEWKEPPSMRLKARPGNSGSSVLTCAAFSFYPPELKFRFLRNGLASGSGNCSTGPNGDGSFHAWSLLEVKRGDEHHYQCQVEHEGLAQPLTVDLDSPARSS
T4 sequence (looked up) 2: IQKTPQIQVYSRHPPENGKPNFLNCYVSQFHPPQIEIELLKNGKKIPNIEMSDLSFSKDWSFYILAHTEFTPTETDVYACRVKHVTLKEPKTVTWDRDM

[6] = target: T1, Recombinant in-house Human FcRn protein; test: SPR, pH 7.4
[7] = target: T2, cynomolgus monkey FcRn; test: SPR, pH 7.4
[8] = target: T3, mouse FcRn; test: SPR, pH 7.4
[9] = target: T4, rat FcRn; test: SPR, pH 7.4
[10] = target: T1, Recombinant in-house Human FcRn protein; test: competitive binding ELISA, pH 6.0, in triplicate; competitor IgG
[11] = target: T1, Recombinant in-house Human FcRn protein; test: competitive binding ELISA, pH 6.0; competitor Efgartigimod (Fc Fragment 1)

T1 sequence (P55899 24-297 limits assumed, chain 1 of 2): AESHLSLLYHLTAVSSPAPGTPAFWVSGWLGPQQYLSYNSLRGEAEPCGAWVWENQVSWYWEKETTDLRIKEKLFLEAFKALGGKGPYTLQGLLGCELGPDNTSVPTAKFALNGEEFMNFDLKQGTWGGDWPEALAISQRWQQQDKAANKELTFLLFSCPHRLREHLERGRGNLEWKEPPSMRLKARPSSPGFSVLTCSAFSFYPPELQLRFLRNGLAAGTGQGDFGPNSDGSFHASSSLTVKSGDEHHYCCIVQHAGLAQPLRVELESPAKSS
T1 sequence (P61769 21-119 limits assumed, chain 2 of 2): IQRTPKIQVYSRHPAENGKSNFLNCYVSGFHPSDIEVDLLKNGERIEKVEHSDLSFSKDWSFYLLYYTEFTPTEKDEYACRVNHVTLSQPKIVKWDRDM

B1: Fc Fusion Molecule 22 (Fc fusion)
chain 1: DKTHTCPPCPAPELLGGPSVFLFPPKPKDTLYITREPEVTCVVVDVSHEDPEVKFNWYVDGVEVHNAKTKPREEQYNSTYRVVSVLTVLHQDWLNGKEYKCKVSNKALPAPIEKTISKAKGQPREPQVCTLPPSRDELTKNQVSLSCAVKGFYPSDIAVEWESNGQPENNYKTTPPVLDSDGSFFLVSKLTVDKSRWQQGNVFSCSVMHEALKYHYTQKSLSLSPGGGGGSGGGGSGGGGSEVQLLESGGGLVQPGGSLRLSCAASGFTFRSFGMSWVRQAPGKGPEWVSSISGSGSDTLYADSVKGRFTISRDNSKNTLYLQMNSLRPEDTAVYYCTIGGSLSRSSQGTLVTVSS
chain 2: DKTHTCPPCPAPELLGGPSVFLFPPKPKDTLYITREPEVTCVVVDVSHEDPEVKFNWYVDGVEVHNAKTKPREEQYNSTYRVVSVLTVLHQDWLNGKEYKCKVSNKALPAPIEKTISKAKGQPREPQVYTLPPCRDELTKNQVSLWCLVKGFYPSDIAVEWESNGQPENNYKTTPPVLDSDGSFFLYSKLTVDKSRWQQGNVFSCSVMHEALKYHYTQKSLSLSPG
- Average (n = 3) Residual FcRn [1]: 20

B2: Fc Fusion Molecule 43 (Fc fusion)
chain 1: DKTHTCPPCPAPELLGGPSVFLFPPKPKDTLYITREPEVTCVVVDVSHEDPEVKFNWYVDGVEVHNAKTKPREEQYNSTYRVVSVLTVLHQDWLNGKEYKCKVSNKALPAPIEKTISKAKGQPREPQVCTLPPSRDELTKNQVSLSCAVKGFYPSDIAVEWESNGQPENNYKTTPPVLDSDGSFFLVSKLTVDKSRWQQGNVFSCSVMHEALKYHYTQKSLSLSPGGGGGSGGGGSGGGGSEVQLLESGGGLVQPGGSLRLSCAASGFTFRSAGMSWVRQAPGKGPEWVSSISGSGSDTLYADSVKGRFTISRDNSKNTLYLQMNSLRPEDTAVYYCTIGGSLSRSSQGTLVTVSS
chain 2: DKTHTCPPCPAPELLGGPSVFLFPPKPKDTLYITREPEVTCVVVDVSHEDPEVKFNWYVDGVEVHNAKTKPREEQYNSTYRVVSVLTVLHQDWLNGKEYKCKVSNKALPAPIEKTISKAKGQPREPQVYTLPPCRDELTKNQVSLWCLVKGFYPSDIAVEWESNGQPENNYKTTPPVLDSDGSFFLYSKLTVDKSRWQQGNVFSCSVMHEALKYHYTQKSLSLSPG
- Average (n = 3) Residual FcRn [1]: 12

B3: Fc Fusion Molecule 44 (Fc fusion)
chain 1: DKTHTCPPCPAPELLGGPSVFLFPPKPKDTLYITREPEVTCVVVDVSHEDPEVKFNWYVDGVEVHNAKTKPREEQYNSTYRVVSVLTVLHQDWLNGKEYKCKVSNKALPAPIEKTISKAKGQPREPQVCTLPPSRDELTKNQVSLSCAVKGFYPSDIAVEWESNGQPENNYKTTPPVLDSDGSFFLVSKLTVDKSRWQQGNVFSCSVMHEALKYHYTQKSLSLSPGGGGGSGGGGSGGGGSGGGGSGGGGSGGGGSEVQLLESGGGLVQPGGSLRLSCAASGFTFRSAGMSWVRQAPGKGPEWVSSISGSGSDTLYADSVKGRFTISRDNSKNTLYLQMNSLRPEDTAVYYCTIGGSLSRSSQGTLVTVSS
chain 2: DKTHTCPPCPAPELLGGPSVFLFPPKPKDTLYITREPEVTCVVVDVSHEDPEVKFNWYVDGVEVHNAKTKPREEQYNSTYRVVSVLTVLHQDWLNGKEYKCKVSNKALPAPIEKTISKAKGQPREPQVYTLPPCRDELTKNQVSLWCLVKGFYPSDIAVEWESNGQPENNYKTTPPVLDSDGSFFLYSKLTVDKSRWQQGNVFSCSVMHEALKYHYTQKSLSLSPG
- Average (n = 3) Residual FcRn [1]: 21

B4: Fc Fusion Molecule 42 (Fc fusion)
chain 1: DKTHTCPPCPAPELLGGPSVFLFPPKPKDTLYITREPEVTCVVVDVSHEDPEVKFNWYVDGVEVHNAKTKPREEQYNSTYRVVSVLTVLHQDWLNGKEYKCKVSNKALPAPIEKTISKAKGQPREPQVCTLPPSRDELTKNQVSLSCAVKGFYPSDIAVEWESNGQPENNYKTTPPVLDSDGSFFLVSKLTVDKSRWQQGNVFSCSVMHEALKYHYTQKSLSLSPGGGGGSGGGGSGGGGSGGGGSGGGGSGGGGSGGGGSGGGGSEVQLLESGGGLVQPGGSLRLSCAASGFTFRSFGMSWVRQAPGKGPEWVSSISGSGSDTLYADSVKGRFTISRDNSKNTLYLQMNSLRPEDTAVYYCTIGGSLSRSSQGTLVTVSS
chain 2: DKTHTCPPCPAPELLGGPSVFLFPPKPKDTLYITREPEVTCVVVDVSHEDPEVKFNWYVDGVEVHNAKTKPREEQYNSTYRVVSVLTVLHQDWLNGKEYKCKVSNKALPAPIEKTISKAKGQPREPQVYTLPPCRDELTKNQVSLWCLVKGFYPSDIAVEWESNGQPENNYKTTPPVLDSDGSFFLYSKLTVDKSRWQQGNVFSCSVMHEALKYHYTQKSLSLSPG
- Average (n = 3) Residual FcRn [1]: 48

B5: Fc Fusion Molecule 45 (Fc fusion)
chain 1: DKTHTCPPCPAPELLGGPSVFLFPPKPKDTLYITREPEVTCVVVDVSHEDPEVKFNWYVDGVEVHNAKTKPREEQYNSTYRVVSVLTVLHQDWLNGKEYKCKVSNKALPAPIEKTISKAKGQPREPQVCTLPPSRDELTKNQVSLSCAVKGFYPSDIAVEWESNGQPENNYKTTPPVLDSDGSFFLVSKLTVDKSRWQQGNVFSCSVMHEALKYHYTQKSLSLSPGGGGGSGGGGSGGGGSGGGGSGGGGSGGGGSGGGGSEVQLLESGGGLVQPGGSLRLSCAASGFTFRSAGMSWVRQAPGKGPEWVSSISGSGSDTLYADSVKGRFTISRDNSKNTLYLQMNSLRPEDTAVYYCTIGGSLSRSSQGTLVTVSS
chain 2: DKTHTCPPCPAPELLGGPSVFLFPPKPKDTLYITREPEVTCVVVDVSHEDPEVKFNWYVDGVEVHNAKTKPREEQYNSTYRVVSVLTVLHQDWLNGKEYKCKVSNKALPAPIEKTISKAKGQPREPQVYTLPPCRDELTKNQVSLWCLVKGFYPSDIAVEWESNGQPENNYKTTPPVLDSDGSFFLYSKLTVDKSRWQQGNVFSCSVMHEALKYHYTQKSLSLSPG
- Average (n = 3) Residual FcRn [1]: 29

B6: Fc Fusion Molecule 41 (Fc fusion)
chain 1: DKTHTCPPCPAPELLGGPSVFLFPPKPKDTLYITREPEVTCVVVDVSHEDPEVKFNWYVDGVEVHNAKTKPREEQYNSTYRVVSVLTVLHQDWLNGKEYKCKVSNKALPAPIEKTISKAKGQPREPQVCTLPPSRDELTKNQVSLSCAVKGFYPSDIAVEWESNGQPENNYKTTPPVLDSDGSFFLVSKLTVDKSRWQQGNVFSCSVMHEALKYHYTQKSLSLSPGGGGGSGGGGSGGGGSGGGGSGGGGSGGGGSEVQLLESGGGLVQPGGSLRLSCAASGFTFRSFGMSWVRQAPGKGPEWVSSISGSGSDTLYADSVKGRFTISRDNSKNTLYLQMNSLRPEDTAVYYCTIGGSLSRSSQGTLVTVSS
chain 2: DKTHTCPPCPAPELLGGPSVFLFPPKPKDTLYITREPEVTCVVVDVSHEDPEVKFNWYVDGVEVHNAKTKPREEQYNSTYRVVSVLTVLHQDWLNGKEYKCKVSNKALPAPIEKTISKAKGQPREPQVYTLPPCRDELTKNQVSLWCLVKGFYPSDIAVEWESNGQPENNYKTTPPVLDSDGSFFLYSKLTVDKSRWQQGNVFSCSVMHEALKYHYTQKSLSLSPG
- Average (n = 3) Residual FcRn [1]: 31

B7: Fc Fragment 14 (other)
chain: DKTHTCPPCPAPELLGGPSVFLFPPKPKDTLYITREPEVTCVVVDVSHEDPEVKFNWYVDGVEVHNAKTKPREEQYNSTYRVVSVLTVLHQDWLNGKEYKCKVSNKALPAPIEKTISKAKGQPREPQVYTLPPSRDELTKNQVSLTCLVKGFYPSDIAVEWESNGQPENNYKTTPPVLDSDGSFFLYSKLTVDKSRWQQGNVFSCSVLHEALRFHYTQKSLSLSPG
notes: Human IgG1 Fc fragment; substitutions already in the entry
- Kd [2]: 8.26 nM
- Kd [3]: 36.1 nM
- Kd [4]: 0.288 nM
- Kd [5]: 3.94 nM
- Kd [6]: 249 nM
- Kd [7]: 1600 nM
- Kd [8]: 2.34 nM
- Kd [9]: 12.4 nM
- IC50 [10]: 2.09 nM
- IC50 [11]: 3.85 nM

B8: Fc Fragment 13 (other)
chain: DKTHTCPPCPAPELLGGPSVFLFPPKPKDTLYITREPEVTCVVVDVSHEDPEVKFNWYVDGVEVHNAKTKPREEQYNSTYRVVSVLTVLHQDWLNGKEYKCKVSNKALPAPIEKTISKAKGQPREPQVYTLPPSRDELTKNQVSLTCLVKGFYPSDIAVEWESNGQPENNYKTTPPVLDSDGSFFLYSKLTVDKSRWQQGNVFSCSVMHEALRFHYTQKSLSLSPG
notes: as for B7
- Kd [2]: 9.53 nM
- Kd [3]: 41.7 nM
- Kd [4]: 0.2 nM
- Kd [5]: 4.33 nM
- Kd [6]: 248 nM
- Kd [7]: 1370 nM
- Kd [8]: 2.73 nM
- Kd [9]: 16.2 nM
- IC50 [10]: 1.13 nM
- IC50 [11]: 4.71 nM
